In US7799901B2, “Modulators of the function of FAS receptors and other proteins” (Yeda Research and Development Co. Ltd., priority 1995, dated 2010):

Columns and labels:
[1] = test system: FAS-R mediated cell death in HeLa cells; assay: Anti-FAS-R antibody (CH-11) induced death of HeLa cells co-expressing FAS-R, neutral-red uptake; type: cell-based; details: co-expression with human FAS-R in HeLa HtTA-1; CH-11 antibody plus 10 μg/ml cycloheximide
Excerpt: In another set of experiments to analyze the region of the MORT-1 protein involved in the binding to the FAS-IC, the following proteins were expressed transiently in HeLa cells that contain a tetracycline-controlled transactivator (HtTA-1), using a tetracycline-controlled expression vector (pUHD10-3): Human FAS-R alone; Human FAS-R as well as the N-terminal part of MORT-1 (amino acids 1-117, the “MORT-1 head”); Human FAS-R as well as the C-terminal part of MORT-1, which contains its ‘death domain’ homology region (amino acids 130-245, the “MORT-1 DD”); FLAG-55.11 (amino acids 309-900 of protein 55.11 fused at the N-terminus to the FLAG octapeptide, the protein 55.11 being a p55-IC-specific binding protein. Twelve hours after transfection, the cells were trypsinized and re-seeded at a concentration of 30,000 cells/well. After 24 hrs further incubation, the cells were treated for 6 hrs with a monoclonal antibody against the extracellular domain of FAS-R (monoclonal antibody CH-11, Oncor, Gaithersburg, Md., USA) at various concentrations (0.001-10 μg/ml monoclonal antibody), in the presence of 10 μg/ml cycloheximide. Cell viability was then determined by the neutral-red uptake assay and the results were presented in terms of % viable cells as compared to cells that had been incubated with cycloheximide alone (in the absence of anti-FAS-R monoclonal antibody CH-11). […]

[2] = test system: fragment of MORT-1 corresponding to residues 1-117; assay: Two-hybrid test (FIG. 1), binding to MORT-1 residues 1-117
Excerpt: (§1) To isolate proteins interacting with the intracellular domain of the FAS-R, the yeast two-hybrid system was used (Fields and Song, 1989). […] In this system, the genes for the candidate interacting proteins are cloned into separate expression vectors. In one expression vector, the sequence of the one candidate protein is cloned in phase with the sequence of the GAL4 DNA-binding domain to generate a hybrid protein with the GAL4 DNA-binding-domain, and in the other vector, the sequence of the second candidate protein is cloned in phase with the sequence of the GAL4 activation domain to generate a hybrid protein with the GAL4-activation domain. The two hybrid vectors are then co-transformed into a yeast host strain having a lacZ or HIS3 reporter gene under the control of upstream GAL4 binding sites. Only those transformed host cells (cotransformants) in which the two hybrid proteins are expressed and are capable of interacting with each other, will be capable of expressing the reporter gene. In the case of the lacZ reporter gene, host cells expressing this gene will become blue in color when X-gal is added to the cultures. […]
(§2) In FIG. 1, there is depicted the interaction of the proteins encoded by the Gal4 DNA binding domain and activation-domain constructs (pGBT9 and pGAD-GH) within transfected SFY526 yeasts as assessed by β-galactosidase expression filter assay. […]

FAS-IC = target: T1, FAS-IC (Homo sapiens, UniProt P25445); assay: Two-hybrid test (FIG. 1), binding of MORT-1 fragments to FAS-IC
T1 construct: the FAS-IC extends-from amino acid residues 175-319 of the intact FAS-R; expressed in transfected cells; host or cells: SFY526 yeast
T1 sequence (P25445 191-335): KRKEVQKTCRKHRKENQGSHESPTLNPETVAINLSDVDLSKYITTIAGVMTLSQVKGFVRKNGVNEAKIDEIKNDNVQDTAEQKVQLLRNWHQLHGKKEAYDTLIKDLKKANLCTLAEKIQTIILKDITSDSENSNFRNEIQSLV
Excerpt: as §1, §2

MORT-1 = target: T2, MORT-1 (Homo sapiens, UniProt Q13158, G32V); assay: Two-hybrid test (FIG. 1), binding to full-length MORT-1; design: expressed in transfected cells; host or cells: SFY526 yeast
T2 sequence (Q13158 with tags, fused parts or gaps G32V): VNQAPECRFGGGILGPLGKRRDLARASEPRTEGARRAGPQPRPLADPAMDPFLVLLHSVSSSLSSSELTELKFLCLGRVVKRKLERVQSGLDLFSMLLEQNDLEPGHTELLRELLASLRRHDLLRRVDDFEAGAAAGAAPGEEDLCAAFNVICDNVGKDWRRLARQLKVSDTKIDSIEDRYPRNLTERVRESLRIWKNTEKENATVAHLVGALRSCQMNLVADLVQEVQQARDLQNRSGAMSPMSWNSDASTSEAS
Excerpt: To isolate proteins interacting with the intracellular domain of the FAS-R, the yeast two-hybrid system was used (Fields and Song, 1989). […] In this system, the genes for the candidate interacting proteins are cloned into separate expression vectors. In one expression vector, the sequence of the one candidate protein is cloned in phase with the sequence of the GAL4 DNA-binding domain to generate a hybrid protein with the GAL4 DNA-binding-domain, and in the other vector, the sequence of the second candidate protein is cloned in phase with the sequence of the GAL4 activation domain to generate a hybrid protein with the GAL4-activation domain. The two hybrid vectors are then co-transformed into a yeast host strain having a lacZ or HIS3 reporter gene under the control of upstream GAL4 binding sites. Only those transformed host cells (cotransformants) in which the two hybrid proteins are expressed and are capable of interacting with each other, will be capable of expressing the reporter gene. In the case of the lacZ reporter gene, host cells expressing this gene will become blue in color when X-gal is added to the cultures.
(b) retransforming the plasmid DNA and original FAS-IC hybrid plasmid and control plasmids described in (a) into yeast host cells of strain SFY526 and determining the LACZ^+ activity (effectivity of β-gal formation, i.e., blue color formation).
In FIG. 1, there is depicted the interaction of the proteins encoded by the Gal4 DNA binding domain and activation-domain constructs (pGBT9 and pGAD-GH) within transfected SFY526 yeasts as assessed by β-galactosidase expression filter assay. The DNA-binding-domain constructs included four constructs of the human Fas-IC, four constructs of the mouse Fas-IC including two full-length constructs having […] or Ile to Ala replacement mutations at position 225 (I225N and I225A, respectively), and three MORT-1 constructs, all of which are shown schematically on the left hand side of FIG. 1. […]

- binding to MORT-1 residues 1-117 in two-hybrid test [2]: does not bind
- binding to FAS-IC / FAS-R in two-hybrid test (FAS-IC): does not bind
- binding to full-length MORT-1 in two-hybrid test (MORT-1): binds
B1: fragment of MORT-1 corresponding to residues 1-117: N-terminal part of MORT-1, amino acids 1-117 (protein)
chain: VNQAPECRFGGGILGPLGKRRDLARASEPRTEGARRAGPQPRPLADPAMDPFLVLLHSVSSSLSSSELTELKFLCLGRVVKRKLERVQSGLDLFSMLLEQNDLEPGHTELLRELLAS
- effect on FAS-induced (FAS-R mediated) cell death [1]: does not interfere
